From article PMC4382335

Tests used:
[1] = biological target: papain from papaia latex (papaia (from papaia latex)) (UniProt P00784)
[2] = biological target: papain from papaia latex (papaia (from papaia latex)) (UniProt P00784); remark: listed apart in the source
[3] = biological target: TcCYS4-His-tag, recombinant cystatin TcCYS4 from Theobroma cacao (Theobroma cacao); assay: SEC; TcCYS4 at 20 uM in 100 mM phosphate buffer pH 6, 150 mM NaCl, treated at different temperatures for 10 min (all heat treatments), Superdex 75 5/150, LMW standards
[4] = biological target: papain from papaia latex (papaia (from papaia latex)) (UniProt P00784); remark: listed apart in the source
[5] = biological target: TcCYS4-His-tag, recombinant cystatin TcCYS4 from Theobroma cacao (Theobroma cacao); assay: SEC; as a2, samples treated in the range from 55 to 75°C for 10 min; 20 uM, 100 mM phosphate buffer pH 6, 150 mM NaCl, Superdex 75 5/150
[6] = biological target: papain from papaia latex (papaia (from papaia latex)) (UniProt P00784); remark: listed apart in the source
[7] = biological target: papain from papaia latex (papaia (from papaia latex)) (UniProt P00784); remark: listed apart in the source

Chain of UniProt P00784 (P00784 134-345): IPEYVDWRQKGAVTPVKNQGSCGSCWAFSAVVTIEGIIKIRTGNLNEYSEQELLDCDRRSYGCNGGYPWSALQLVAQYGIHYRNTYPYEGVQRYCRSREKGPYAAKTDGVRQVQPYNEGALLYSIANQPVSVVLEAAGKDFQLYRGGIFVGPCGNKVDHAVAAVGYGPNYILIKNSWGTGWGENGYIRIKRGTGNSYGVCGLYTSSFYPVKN

Substance: TcCYS4-His-tag, recombinant cystatin TcCYS4 from Theobroma cacao (natural protein)
- percentage of inhibition of papain at pH values of the reaction medium from 2 to 10.5 (20% at pH 3, 70% at pH 3.5, about 90% from pH 4 to 9, about 80% at pH 10.5) [1]: 90%
- residual activity of papain with TcCYS4 treated at 65°C for 0 to 600 s (plateau after 300 s) [2]: 60%
- stoichiometry N [3]: 2
- papain inhibitory activity after treatment of the cystatin for 10 min at different temperatures up to 90°C; 70% of activity at 65°C [4]: > 100%
- stoichiometry N [5]: 3

Substance: recombinant cystatin TcCYS2 from Theobroma cacao (natural protein)
- papain inhibitory activity after treatment of the cystatin for 10 min at different temperatures up to 90°C; around 52% at 65°C [6]: 65%

Substance: recombinant cystatin TcCYS3 from Theobroma cacao (natural protein)
- papain inhibition rate after treatment of the cystatin for 10 min at temperatures up to 90°C [7]: 100%
